Tests used:
Assay in all cases: cell-based or functional assay
[1] = target: rhodopsin in urea treated rod outer segments (bovine) (UniProt P02699)
[2] = target: G protein-coupled receptor kinase GRK6 (human) (human) (UniProt P43250)
[3] = target: G protein-coupled receptor kinase GRK5 (human) (human) (UniProt P34947)
G protein-coupled receptor kinase GRK5 (human) (human), sequence (P34947 whole entry E78G): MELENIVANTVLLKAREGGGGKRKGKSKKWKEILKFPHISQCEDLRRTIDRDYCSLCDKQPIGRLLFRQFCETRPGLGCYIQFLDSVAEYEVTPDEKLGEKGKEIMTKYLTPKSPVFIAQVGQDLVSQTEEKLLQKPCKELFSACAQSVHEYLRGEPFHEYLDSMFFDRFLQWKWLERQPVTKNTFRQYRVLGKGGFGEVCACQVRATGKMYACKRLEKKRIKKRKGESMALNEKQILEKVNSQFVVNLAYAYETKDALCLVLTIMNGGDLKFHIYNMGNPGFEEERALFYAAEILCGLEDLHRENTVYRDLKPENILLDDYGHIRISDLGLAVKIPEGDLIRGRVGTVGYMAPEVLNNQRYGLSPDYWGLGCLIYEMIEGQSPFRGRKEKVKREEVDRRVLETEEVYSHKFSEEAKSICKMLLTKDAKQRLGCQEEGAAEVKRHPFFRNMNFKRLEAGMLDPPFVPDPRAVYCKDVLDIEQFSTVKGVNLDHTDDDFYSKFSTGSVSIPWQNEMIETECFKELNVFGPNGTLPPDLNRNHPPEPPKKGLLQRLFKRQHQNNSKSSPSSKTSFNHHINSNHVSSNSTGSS

G protein-coupled receptor kinase GRK6 (human) (human), sequence (P43250 other isoform, or with tags, fused parts or gaps limits assumed): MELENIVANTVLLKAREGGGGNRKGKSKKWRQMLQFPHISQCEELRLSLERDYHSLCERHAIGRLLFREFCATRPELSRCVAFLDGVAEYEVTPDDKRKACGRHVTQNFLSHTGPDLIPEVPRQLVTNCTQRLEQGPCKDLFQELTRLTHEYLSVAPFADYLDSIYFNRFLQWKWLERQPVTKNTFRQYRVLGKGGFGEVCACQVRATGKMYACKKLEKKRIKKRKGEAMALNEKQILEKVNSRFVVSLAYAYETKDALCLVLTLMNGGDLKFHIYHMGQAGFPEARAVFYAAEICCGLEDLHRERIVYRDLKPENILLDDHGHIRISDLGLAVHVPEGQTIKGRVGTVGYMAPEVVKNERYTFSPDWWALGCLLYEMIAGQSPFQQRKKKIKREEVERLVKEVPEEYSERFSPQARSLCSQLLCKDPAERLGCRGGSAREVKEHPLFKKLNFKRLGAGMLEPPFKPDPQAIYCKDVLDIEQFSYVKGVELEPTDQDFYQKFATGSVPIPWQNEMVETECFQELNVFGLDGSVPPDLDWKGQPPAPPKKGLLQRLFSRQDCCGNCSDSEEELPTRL
rhodopsin in urea treated rod outer segments (bovine), sequence (P02699 whole entry): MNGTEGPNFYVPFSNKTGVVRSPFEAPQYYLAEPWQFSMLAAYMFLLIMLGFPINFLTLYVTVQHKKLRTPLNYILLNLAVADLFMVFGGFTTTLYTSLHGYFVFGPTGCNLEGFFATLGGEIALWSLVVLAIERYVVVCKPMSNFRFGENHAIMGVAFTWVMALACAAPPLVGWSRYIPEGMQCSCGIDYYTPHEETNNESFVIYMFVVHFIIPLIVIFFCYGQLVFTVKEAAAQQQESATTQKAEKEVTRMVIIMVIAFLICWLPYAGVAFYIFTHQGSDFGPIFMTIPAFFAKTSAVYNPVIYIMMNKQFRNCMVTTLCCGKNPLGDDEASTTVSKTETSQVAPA

| Substance | light-dependent rhodopsin phosphorylation by Sf9 cell supernatant [1] [pmol/min/mg] | IC50 of inhibition of kinase activity [2] [nM] | fold less effective as inhibitor compared to GRK5 [2] [fold] | other results |
| --- | --- | --- | --- | --- |
| G protein-coupled receptor kinase GRK5 (human) (from UniProt P34947 1-590) (enzyme) | 1120 | – | – | – |
| G protein-coupled receptor kinase GRK6 (human) (from UniProt P43250 1-576) (enzyme) | – | – | – | specific activity of phosphorylation of bleached rhodopsin by Sf9 cell supernatant (pmol/min/mg protein) [1]: 81 |
| polyaspartic acid (peptide) | – | 487 | 6 | – |
| polylysine, a 14-16 amino acid peptide | – | – | – | fold activation of kinase activity [3]: 2.6 fold |

Continued, in another order:

| light-dependent rhodopsin phosphorylation by Sf9 cell supernatant [1] [pmol/min/mg] | IC50 of inhibition of kinase activity [2] [nM] | fold less effective as inhibitor compared to GRK5 [2] [fold] | Substance | other results |
| --- | --- | --- | --- | --- |
| – | 400 | 16 | polyglutamic acid (peptide) | – |
| 2470 | – | – | β-adrenergic receptor kinase (enzyme) | – |
